According to paper PMC11193720:

Key:
[1] = target: VZV glycoprotein C gC_(S147-V531) (varicella zoster virus, Dumas strain); assay: SPR + other: grating-coupled interferometry (GCI)
[2] = target: VZV glycoprotein C gC_(Y322-S523) (varicella zoster virus, Dumas strain); assay: SPR + other: grating-coupled interferometry (GCI)
[3] = target: VZV glycoprotein C gC_(Y419-S523) (varicella zoster virus, Dumas strain); assay: SPR + other: grating-coupled interferometry (GCI)
[4] = target: VZV glycoprotein C gC_(S147-V531) (varicella zoster virus, Dumas strain)
[5] = target: VZV glycoprotein C construct gC Y419-S523 (varicella zoster virus (Dumas strain)); assay: SPR
VZV glycoprotein C construct gC Y419-S523 (varicella zoster virus (Dumas strain)), sequence (P09256 450-554 limits assumed): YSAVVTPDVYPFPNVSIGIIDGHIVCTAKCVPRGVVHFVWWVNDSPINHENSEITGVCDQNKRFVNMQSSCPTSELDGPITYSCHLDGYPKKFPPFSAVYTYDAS

VZV glycoprotein C gC_(S147-V531) (varicella zoster virus, Dumas strain), sequence (P09256 178-562 limits assumed): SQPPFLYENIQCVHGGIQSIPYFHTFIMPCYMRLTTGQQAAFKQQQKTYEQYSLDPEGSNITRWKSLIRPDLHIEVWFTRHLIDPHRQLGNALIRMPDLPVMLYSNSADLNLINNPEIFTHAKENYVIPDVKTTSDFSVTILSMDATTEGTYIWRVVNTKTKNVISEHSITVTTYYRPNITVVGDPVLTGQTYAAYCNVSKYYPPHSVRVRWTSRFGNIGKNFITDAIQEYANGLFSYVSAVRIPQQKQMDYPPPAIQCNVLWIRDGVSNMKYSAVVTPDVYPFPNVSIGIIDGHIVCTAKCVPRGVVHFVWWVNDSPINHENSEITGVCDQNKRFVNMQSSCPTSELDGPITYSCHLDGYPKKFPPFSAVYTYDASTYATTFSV
VZV glycoprotein C gC_(Y322-S523) (varicella zoster virus, Dumas strain), sequence (P09256 353-554 limits assumed): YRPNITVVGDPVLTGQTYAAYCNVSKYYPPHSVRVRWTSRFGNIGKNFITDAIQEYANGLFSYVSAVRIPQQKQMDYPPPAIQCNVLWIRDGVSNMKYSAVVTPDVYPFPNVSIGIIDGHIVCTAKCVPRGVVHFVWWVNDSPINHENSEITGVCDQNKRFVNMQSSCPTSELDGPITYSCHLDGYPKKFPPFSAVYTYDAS
VZV glycoprotein C gC_(Y419-S523) (varicella zoster virus, Dumas strain), sequence (P09256 450-554 limits assumed): as the sequence (P09256 450-554 limits assumed) above

Substance “interferon-gamma (IFN-γ) (from UniProt P01579 24-161) (ligand)” has an off-rate of the transient interaction (Kd1), heterogenous ligand fit [1] of 0.04 s⁻¹, an off-rate of the transient interaction (Kd1), heterogenous ligand fit [2] of 0.04 s⁻¹ and a koff [3] of 0.02 s⁻¹. The adhesion of Jurkat cells to HaCaT cells stimulated with 5 ng/mL IFN-γ and 300 nM gC construct, fold against IFN-γ alone [4] was 2.7 fold, the Kd [5] was 18 nM and the koff [5] was 0.0244 s⁻¹. The kon [5] was 1.35e+06 M⁻¹ s⁻¹.
